Test results published in publication PMC4519192, “In vitro Selection and Interaction Studies of a DNA Aptamer Targeting Protein A”.

Key:
[1] = biological target: T1, Protein A, native (Sigma P3838) (Staphylococcus aureus, UniProt P38507 37-477); assay: MST; 25 C, in solution; settings: protein: native, label: 5'-fluorescein
[2] = biological target: T2, Protein A, recombinant (Sigma P7837) (UniProt P38507 37-327); assay: MST; 25 C, in solution; settings: protein: recombinant, label: 5'-fluorescein
[3] = biological target: T3, Protein A, native biotinylated (Sigma P2165) (Staphylococcus aureus, UniProt P38507 37-477); assay: SPR; kinetic 1:1 fit; ka 1.23e3 M-1s-1, kd 1.66e-3 s-1; settings: tags: biotin, label: 5'-fluorescein
[4] = biological target: T3, Protein A, native biotinylated (Sigma …); assay: SPR; steady state; Protein A immobilized ~600 RU; settings: tags: biotin, label: 5'-fluorescein
[5] = biological target: T3, Protein A, native biotinylated (Sigma …); assay: bead-based fluorescence binding; Protein A on streptavidin beads; settings: tags: biotin, label: 5'-fluorescein
[6] = biological target: T2, Protein A, recombinant (Sigma P7837); assay: SPR; single-cycle mode; aptamer 516 RU; settings: label: 3'-biotin
[7] = biological target: T1, Protein A, native (Sigma P3838); assay: SPR; steady state; aptamer immobilized 1158 RU; avidity; settings: label: 3'-biotin
[8] = biological target: human thrombin (89223 Fluka) (human, UniProt P00734;P00734 328-363;364-622); assay: SPR
[9] = biological target: T2, Protein A, recombinant (Sigma P7837); assay: SPR; steady state; aptamer immobilized 1086 RU; avidity; settings: label: 3'-biotin
[10] = biological target: Protein G, recombinant (Pierce 21193) (group G Streptococci, UniProt P06654 228-352); assay: SPR; 1000 nM protein; settings: label: 3'-biotin, predicted stem-loops, possible G4
[11] = biological target: T3, Protein A, native biotinylated (Sigma …); assay: bead-based fluorescence binding; settings: tags: biotin, label: 5'-fluorescein
[12] = biological target: T2, Protein A, recombinant (Sigma P7837); assay: SPR; steady state; aptamer immobilized 1030 RU; settings: label: 3'-biotin, predicted stem-loop

Chain of Protein G, recombinant (Pierce 21193) (P06654 228-352): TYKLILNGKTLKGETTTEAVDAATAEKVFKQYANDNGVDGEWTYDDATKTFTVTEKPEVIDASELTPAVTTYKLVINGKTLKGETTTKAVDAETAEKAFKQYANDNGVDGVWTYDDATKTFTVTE

B1: PA#2/8 5'-fluorescein (structured_DNA)
DNA: ATACCAGCTTATTCAATTAGCAACATGAGGGGGATAGAGGGGGTGGGTTCTCTCGGCTACAATCGTAATCAGTTAG
Kd [1]: 668 ± 224 nM
Kd [2]: 927 ± 404 nM
Kd [3]: 1350 nM
Kd [4]: 2220 ± 180 nM
Kd [5]: 1060 ± 200 nM

B2: PA#2/8 3'-biotin (structured_DNA)
DNA: B1 DNA
Kd [6]: 148 ± 7.6 nM
Kd [7]: 84 ± 5 nM
binding result [8]: no binding
Kd [9]: 172 ± 14 nM
binding result [10]: no binding

B3: PA#2/8[S1-58] 5'-fluorescein (structured_DNA)
DNA: ATACCAGCTTATTCAATTAGCAACATGAGGGGGATAGAGGGGGTGGGTTCTCTCGGCT
Kd ([1]; predicted stem-loop): 222 ± 60.5 nM
Kd ([2]; predicted stem-loop): 94.7 ± 64.6 nM
Kd ([4]; predicted stem-loop): 1920 ± 250 nM

B4: PA#2/8[S1-43] (structured_DNA)
DNA: ATACCAGCTTATTCAATTAGCAACATGAGGGGGATAGAGGGGG
Kd ([1]; predicted stem-loop): 214 ± 46.1 nM
Kd ([2]; predicted stem-loop): 579 ± 123 nM

B5: PA#2/8[S1-35] (structured_DNA)
DNA: ATACCAGCTTATTCAATTAGCAACATGAGGGGGAT
binding result [11]: no binding

B6: PA#2/8[S1-28] (structured_DNA)
DNA: ATACCAGCTTATTCAATTAGCAACATGA
binding result [11]: no binding

B7: PA#2/8[S19-76] (structured_DNA)
DNA: AGCAACATGAGGGGGATAGAGGGGGTGGGTTCTCTCGGCTACAATCGTAATCAGTTAG
binding result [11]: no binding

B8: PA#2/8KR40 (structured_DNA)
DNA: AGCAACATGAGGGGGATAGAGGGGGTGGGTTCTCTCGGCT
binding result [11]: no binding

B9: PA#2/8KR23 (structured_DNA)
DNA: GATAGAGGGGGTGGGTTCTCTCG
binding result [11]: no binding

B10: PA#2/8[S1-58] 3'-biotin (structured_DNA)
DNA: B3 DNA
Kd [12]: 287 ± 16.2 nM
